Measurements reported in patent publication EP2500357A2 (Abbott Laboratories, dated 2012).
One block for each binder: values may come before it.

Tests used:
Test in all cases: cell-based or functional assay
recombinant human IL-1β [1] = biological target: T1, recombinant human IL-1β (human, UniProt P01584 117-269)
recombinant human IL-1β [2] = biological target: T1, recombinant human IL-1β; remark: listed apart in the source
human IL-18 [3] = biological target: T2, human IL-18 (human, UniProt Q14116 37-193)
human IL-18 [4] = biological target: T2, human IL-18; remark: listed apart in the source
human IL-12 [5] = biological target: T3, human IL-12 (human, UniProt P29459 23-219; P29460 23-328)
T3 sequence (looked up) 1: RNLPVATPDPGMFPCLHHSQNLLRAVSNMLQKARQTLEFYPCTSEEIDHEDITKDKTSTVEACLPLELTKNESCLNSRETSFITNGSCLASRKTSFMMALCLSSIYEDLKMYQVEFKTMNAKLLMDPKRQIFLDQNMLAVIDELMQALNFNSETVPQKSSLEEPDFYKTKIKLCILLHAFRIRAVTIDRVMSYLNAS
T3 sequence (looked up) 2: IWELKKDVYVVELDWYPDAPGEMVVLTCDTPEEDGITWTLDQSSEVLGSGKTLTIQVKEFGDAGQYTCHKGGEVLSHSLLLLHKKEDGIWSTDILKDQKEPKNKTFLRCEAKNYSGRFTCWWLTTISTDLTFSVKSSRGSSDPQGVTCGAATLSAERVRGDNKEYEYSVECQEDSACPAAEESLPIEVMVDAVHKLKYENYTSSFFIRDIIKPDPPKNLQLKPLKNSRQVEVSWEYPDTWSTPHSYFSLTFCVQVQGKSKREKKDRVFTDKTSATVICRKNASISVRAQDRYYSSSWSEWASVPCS

recombinant human IL-1β [6] = biological target: T1, recombinant human IL-1β; remark: listed apart in the source
human IL-12 [7] = biological target: T3, human IL-12; remark: listed apart in the source
mouse IL-1β = mouse IL-1β (mouse, UniProt P10749 118-269)
Sequence of mouse IL-1β (P10749 118-269 limits assumed): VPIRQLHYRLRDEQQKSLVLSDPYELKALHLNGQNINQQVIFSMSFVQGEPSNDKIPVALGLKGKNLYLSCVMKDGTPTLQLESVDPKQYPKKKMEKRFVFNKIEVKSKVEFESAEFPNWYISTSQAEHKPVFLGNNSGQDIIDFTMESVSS

mouse IL-1α = biological target: T4, mouse IL-1α (mouse, UniProt P01582 115-270)
T4 sequence (looked up): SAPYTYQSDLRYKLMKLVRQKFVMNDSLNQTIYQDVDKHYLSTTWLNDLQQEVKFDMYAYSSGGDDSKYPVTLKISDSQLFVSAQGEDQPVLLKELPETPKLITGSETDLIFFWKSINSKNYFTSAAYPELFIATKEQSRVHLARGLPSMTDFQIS

B2: ABT325 (anti-human IL-18 mAb) (antibody, V domains shown)
VH: EVQLVQSGTEVKKPGESLKISCKGSGYTVTSYWIGWVRQMPGKGLEWMGFIYPGDSETRYSPTFQGQVTISADKSFNTAFLQWSSLKASDTAMYYCARVGSGWYPYTFDIWGQGTMVTVSS
VL: not shown
IC50, KG-1 bioassay (IFN-γ production) (human IL-18 [3]): 0.3 nM
Potency (IC50), KG-1 bioassay (IL-18) (human IL-18 [4]): 0.0687 nM

B3: anti-IL-12 mAb 1D4.1 (antibody, V domains shown)
VH: EVTLRESGPALVKPTQTLTLTCTFSGFSLSKSVMGVSWIRQPPGKALEWLAHIYWDDDKYYNPSLKSRLTISKDTSKNQVVLTMTNMDPVDTATYYCARRGIRSAMDYWGQGTTVTVSS
VL: DIVMTQSPDSLAVSLGERATINCKASQSVSNDVAWYQQKPGQPPKLLIYYASNRYTGVPDRFSGSGSGTDFTLTISSLQAEDVAVYYCQQDYNSPWTFGGGTKVEIKR
Potency (IC50), PBMC assay (IL-12) (human IL-12 [5]): 0.418 nM

B5: DVD1812SL (anti-IL12/IL18 DVD-Ig) (bispecific antibody, human IgG1, kappa)
heavy: not shown
light: EIVMTQSPATLSVSPGERATLSCRASESISSNLAWYQQKPGQAPRLFIYTASTRATDIPARFSGSGSGTEFTLTISSLQSEDFAVYYCQQYNNWPSITFGQGTRLEIKRTVAAPQSVLTQPPSVSGAPGQRVTISCSGSRSNIGSNTVKWYQQLPGTAPKLLIYYNDQRPSGVPDRFSGSKSGTSASLAITGLQAEDEADYYCQSYDRYTHPALLFGTGTKVTVLGTVAAPSVFIFPPSDEQLKSGTASVVCLLNNFYPREAKVQWKVDNALQSGNSQESVTEQDSKDSTYSLSSTLTLSKADYEKHKVYACEVTHQGLSSPVTKSFNRGEC
Potency (IC50), KG-1 bioassay (IFN-γ production) (human IL-18 [3]): 0.04 nM
Potency (IC50), IL-12-induced IFN-γ production by PHA blast cells (human IL-12 [7]): 0.366 nM

B6: mIL-1α/β DVD-Ig (bispecific antibody, mouse IgG2a, kappa)
heavy: EVQLQQSGPELVKPGTSVKMSCKTSGYTFTSYVMHWVKQKPGQGLEWIGYIIPYNDNTKYNEKFKGKATLTSDKSSSTAYMELSSLTSEDSAVYYCARRNEYYGSSFFDYWGQGTTLTVSSAKTTAPSVYPLAPQVILKESGPGILQPSQTLSLTCSFSGFSLSTYGTAVNWIRQPSGKGLEWLAQIGSDDRKLYNPFLKSRITLSEDTSNSQVFLKITSVDTEDSATYYCANGVMEYWGLGTSVTVSSAKTTAPSVYPLAPVCGDTTGSSVTLGCLVKGYFPEPVTLTWNSGSLSSGVHTFPAVLQSDLYTLSSSVTVTSSTWPSQSITCNVAHPASSTKVDKKIEPRGPTIKPCPPCKCPAPNLLGGPSVFIFPPKIKDVLMISLSPIVTCVVVDVSEDDPDVQISWFVNNVEVHTAQTQTHREDYNSTLRVVSALPIQHQDWMSGKEFKCKVNNKDLPAPIERTISKPKGSVRAPQVYVLPPPEEEMTKKQVTLTCMVTDFMPEDIYVEWTNNGKTELNYKNTEPVLDSDGSYFMYSKLRVEKKNWVERNSYSCSVVHEGLHNHHTTKSFSRTPGK
light: DIQMTQSPASLSASVGETVTITCRGSGILHNYLVWYQQKQGKSPQLLVYSAKILADGVPSRFSGSGSGTQYSLKINSLQPEDFGSYYCQHFWSTPFTFGSGTKLEIKRADAAPTVSIFPPSIVMTQTPKFLLVSAGDRVTITCKASQSVNHDVAWYQQMPGQSPKLLIYFASNRYTGVPDRFTGSGYGTDFTFTISTVQAEDLAVYFCQQDYSSPYTFGGGTKLEIKRADAAPTVSIFPPSSEQLTSGGASVVCFLNNFYPKDINVKWKIDGSERQNGVLNSWTDQDSKDSTYSMSSTLTLTKDEYERHNSYTCEATHKTSTSPIVKSFNRNEC
IC50, in vitro potency (assay not described) (mouse IL-1β): 0.8 nM
IC50, in vitro potency (assay not described) (mouse IL-1α): 2 nM

B8: ABT874 (anti-human IL-12p40 mAb) (antibody, V domains shown)
VH: QVQLVESGGGVVQPGRSLRLSCAASGFTFSSYGMHWVRQAPGKGLEWVAFIRYDGSNKYYADSVKGRFTISRDNSKNTLYLQMNSLRAEDTAVYYCKTHGSHDNWGQGTMVTVSS
VL: QSVLTQPPSVSGAPGQRVTISCSGSRSNIGSNTVKWYQQLPGTAPKLLIYYNDQRPSGVPDRFSGSKSGTSASLAITGLQAEDEADYYCQSYDRYTHPALLFGTGTKVTVLG
IC50, IL-12-induced IFN-γ production by PHA blast cells (human IL-12 [7]): 0.005 nM

B10: DVD1812LL (anti-IL12/IL18 DVD-Ig) (bispecific antibody, human IgG1, kappa)
heavy: not shown
light: EIVMTQSPATLSVSPGERATLSCRASESISSNLAWYQQKPGQAPRLFIYTASTRATDIPARFSGSGSGTEFTLTISSLQSEDFAVYYCQQYNNWPSITFGQGTRLEIKRTVAAPSVFIFPPQSVLTQPPSVSGAPGQRVTISCSGSRSNIGSNTVKWYQQLPGTAPKLLIYYNDQRPSGVPDRFSGSKSGTSASLAITGLQAEDEADYYCQSYDRYTHPALLFGTGTKVTVLGTVAAPSVFIFPPSDEQLKSGTASVVCLLNNFYPREAKVQWKVDNALQSGNSQESVTEQDSKDSTYSLSSTLTLSKADYEKHKVYACEVTHQGLSSPVTKSFNRGEC
Potency (IC50), KG-1 bioassay (IFN-γ production) (human IL-18 [3]): 0.078 nM
Potency (IC50), IL-12-induced IFN-γ production by PHA blast cells (human IL-12 [7]): 0.118 nM

Continued, values first:

IC50, MRC-5 bioassay (recombinant human IL-1β [1]): 0.4 nM
IC50, inhibition of IL-8 production by MRC-5 cells (recombinant human IL-1β [2]): 0.32 nM
B1: murine anti-hIL-1β mAb 6B12.4F6 (antibody, V domains shown)
VH: EVQLQQSGPELVKTGTSVKISCKASGYSFTGYYMHWVRQSHGKSLEWIGYISCYNGFTSYNPKFKGKATFTVDTSSSTAYIQFSRLTSEDSAVYYCARSDYYGTNDYWGQGTTLTVSS
VL: QIVLTQSPAIMSASPGEKVTITCSASSSVSYMHWFQQKPGASPKLWIYSTSNLASGVPARFSGSGSGTSYSLTVSRMEAEDAATYYCQQRSTYPYTFGGGTKLEIKR

IC50, inhibition of IL-8 production by MRC-5 cells (recombinant human IL-1β [2]): 0.6 nM
Potency (IC50), MRC-5 bioassay (recombinant human IL-1β [6]): 0.6 nM
B4: murine anti-hIL-1β mAb 13F5.G5 (antibody, V domains shown)
VH: QVQLQQSGAELVRPGSSVKISCKASGYAFSSYWMNWVKQRPGQGLEWIGQIYPGDGDTNYNGKFKGKATLTADKSSSTSYMQLSGLTSEDSAMYFCVRFPTGNDYYAMDYWGQGTSVTVSS
VL: NIVLTQSPASLAVSLGQRATISCRASESVDSYGNSYMHWYQQKPGQPPKLLIYLASNLESGVPARFSGSGSRTDFTLTIDPVEADDAATYYCQQNNEDPFTFGSGTKLEIKR

IC50, in vitro potency (assay not described) (mouse IL-1β): 0.37 nM
B7: mouse anti-mouse IL-1β mAb 10G11 (antibody, V domains shown)
VH: EVQLQQSGPELVKPGTSVKMSCKTSGYTFTSYVMHWVKQKPGQGLEWIGYIIPYNDNTKYNEKFKGKATLTSDKSSSTAYMELSSLTSEDSAVYYCARRNEYYGSSFFDYWGQGTTLTVSS
VL: DIQMTQSPASLSASVGETVTITCRGSGILHNYLVWYQQKQGKSPQLLVYSAKILADGVPSRFSGSGSGTQYSLKINSLQPEDFGSYYCQHFWSTPFTFGSGTKLEIKR

IC50, in vitro potency (assay not described) (mouse IL-1α): 0.2 nM
B9: mouse anti-mouse IL-1α mAb 9H10 (antibody, V domains shown)
VH: QVILKESGPGILQPSQTLSLTCSFSGFSLSTYGTAVNWIRQPSGKGLEWLAQIGSDDRKLYNPFLKSRITLSEDTSNSQVFLKITSVDTEDSATYYCANGVMEYWGLGTSVTVSS
VL: SIVMTQTPKFLLVSAGDRVTITCKASQSVNHDVAWYQQMPGQSPKLLIYFASNRYTGVPDRFTGSGYGTDFTFTISTVQAEDLAVYFCQQDYSSPYTFGGGTKLEIKR
